Test results reported in patent US20230020729A1 (Memorial Sloan Kettering, published 2023).

The binders below were run against T1, human Fc Receptor-Like 5 (FcRL5), full length, expressed on cells (human, UniProt Q96RD9 16-977) (assay: scFv phage: ELISA on His-tag FcRL5, flow cytometry on FcRL5-overexpressing 3T3 and Raji cells).
T1 construct: also called CD307e; IRTA2
T1 sequence: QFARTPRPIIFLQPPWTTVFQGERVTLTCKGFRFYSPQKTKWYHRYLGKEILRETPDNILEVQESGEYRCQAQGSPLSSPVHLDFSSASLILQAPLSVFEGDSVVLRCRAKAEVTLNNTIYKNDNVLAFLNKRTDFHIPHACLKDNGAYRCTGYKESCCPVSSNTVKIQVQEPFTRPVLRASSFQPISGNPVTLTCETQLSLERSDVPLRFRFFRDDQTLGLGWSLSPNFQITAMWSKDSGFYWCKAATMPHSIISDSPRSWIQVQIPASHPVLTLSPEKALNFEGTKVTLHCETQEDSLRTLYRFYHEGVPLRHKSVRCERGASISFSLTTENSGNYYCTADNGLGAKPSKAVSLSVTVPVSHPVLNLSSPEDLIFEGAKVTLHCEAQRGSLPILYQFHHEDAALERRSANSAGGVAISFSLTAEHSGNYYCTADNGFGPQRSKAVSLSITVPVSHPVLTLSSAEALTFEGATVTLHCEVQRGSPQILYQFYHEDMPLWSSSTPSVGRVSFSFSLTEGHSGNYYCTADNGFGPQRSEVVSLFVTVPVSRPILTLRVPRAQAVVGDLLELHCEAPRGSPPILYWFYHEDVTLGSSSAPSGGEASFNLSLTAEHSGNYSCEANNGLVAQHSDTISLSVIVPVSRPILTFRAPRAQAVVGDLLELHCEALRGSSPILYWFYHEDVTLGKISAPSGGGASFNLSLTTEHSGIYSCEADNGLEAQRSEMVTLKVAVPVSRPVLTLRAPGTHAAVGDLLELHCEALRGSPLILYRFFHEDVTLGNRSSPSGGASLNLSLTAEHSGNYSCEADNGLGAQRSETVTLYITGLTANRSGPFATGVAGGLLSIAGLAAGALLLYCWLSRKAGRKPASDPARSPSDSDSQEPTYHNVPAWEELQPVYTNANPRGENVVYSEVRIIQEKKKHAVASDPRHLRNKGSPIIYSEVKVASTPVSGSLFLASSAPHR

Binder | binding result
ET200-113 scFv (scFv, VL-linker-VH; screened as scFv phage clone) scFv: QSVVTQPPSVSAAPGQKVTISCSGSSSNIGNNYVSWYQQLPGTAPKLLIYDNNKRPSGIPDRFSGSKSGTSATLGITGLQTGDEADYYCGTWDSSLSAAYVFGTGTKVTVLGSRGGGGSGGGGSGGGGSLEMAQVQLVQSGAEVKKPGASVKVSCKASGYSFTSYTISWVRQAPGQGLEWMGWVSTYNGLRNYAQNLQGRVTMTTDTLTTTAYMELRSLRSDDTAVYYCVREGSPDYGDFAAFDYWGQGTLVTVSS | binds
ET200-115 scFv (scFv, VL-linker-VH; screened as scFv phage clone) scFv: QSVLTQPPSVSGAPGQRVTISCTGSSSNIGARYDVHWYQQLPGTAPRLLISANYDRPSGVPDRFSGSKSGTSASLAITGLQAEDEADYYCQSYDSSVSAWVFGGGTKVTVLGSRGGGGSGGGGSGGGGSLEMAEVQLVQSGAEVKEPGASVRISCQASGYNFISYYMHWVRQAPGQGLEWMGTINPGSGETDYSQKLQGRVTMTRDPSTGTFDMGLSSLTSGDTAVYYCATGLIRGASDAFNIWGRGTMVTVSS | binds
ET200-116 scFv (scFv, VL-linker-VH; screened as scFv phage clone) scFv: QPVLTQPPSVSVSPGQTAAIPCSGDKLGDKFASWYQQKPGQSPVLVIYQDTKRPSGIPERFSGSNSGNTATLTISGTQAMDEADYYCQTWASGIVVFGGGTKLTVLGSRGGGGSGGGGSGGGGSLEMAQVQLQQSGPGLVKPSQTLSLTCAISGDSVSSNSAAWNWIRQSPSRGLEWLGRTYYRSKWYNDYAVSVKSRITINPDTSKNQFSLQLNSVTPEDTAVYYCARERSGWKGFDYWGQGTLVTVSS | binds
ET200-118 scFv (scFv, VL-linker-VH; screened as scFv phage clone) scFv: QAVLTQPASVSGSPGQSITISCTGTSSDVGGYNYVSWYQQHPGKAPKLMIYEVSNRPSGVSNRFSGSKSGNTASLTISGLQAEDEADYYCSSYTSSSTPYVFGAGTKVTVLGSRGGGGSGGGGSGGGGSLEMAEVQLVESGGGLVQPGRSLRLSCAASGFTFDDYAMHWVRQAPGKGLEWVSGISWNSGSIGYADSVKGRFTISRDNAKNSLYLQMNSLRAEDTALYYCAKARWTAVASDHHFDYWGQGTLVTVSS | binds
ET200-009 scFv (scFv, VL-linker-VH; screened as scFv phage clone) scFv: QSVLTQPPSASGTPGQTVTISCSGSNSNIGSNYVYWYQQLPGTAPKLLIYRNNQRPSGVPDRFSGSKSGTSASLAISGLRSEDEADYYCAAWDDSLSAYVFGTGTKVTVLGSRGGGGSGGGGSGGGGSLEMAQVQLVQSGAEVKKPGASVKVSCKASGYTFTSYGISWVRQAPGQGLEWMGWISAYNGNTNYAQKLQGRVTMTTDTSTSTAYMELRSLRSDDTAVYYCARSSGNMVSWKDMWGQGTLVTVSS | binds
ET200-121 scFv (scFv, VL-linker-VH; screened as scFv phage clone) scFv: QSVLTQPPSVSGAPGQRVTVSCTGSRSNIGAGYDVHWYQQLPGTAPKLLIYGNSNRPPGVPDRFSGSKSGTSASLVITGLQAEDAADYYCQSYDNTVRESPYVFGTGTKVTVLGSRGGGGSGGGGSGGGGSLEMAEVQLVQSGAEVKKPGASVKVSCKVSGYTLTELSMHWVRQAPGKGLEWMGGFDPEDGETIYAQKFQGRVTMTEDTSTDTAYMELSSLRSEDTAVYYCATESNLVSRHYYYYGMDVWGQGTTVTVSS | binds
ET200-123 scFv (scFv, VL-linker-VH; screened as scFv phage clone) scFv: QAVLTQPPSASGTPGQRVTISCSGSSSNIGSNTVNWYQQLPGTAPKLLMYNNDQRPSGVPDRFSGSKSGTSASLAISGLQSEDEADYYCAAWDDSLNGYVFGPGTKVTVLGSRGGGGSGGGGSGGGGSLEMAQVQLVESGAEVKKPGASVKVSCKASGYTFTSYGISWVRQAPGQGLEWMGWISAYNGNTNYAQKLQGRVTMTTDTSTSTAYMELRSLRSDDTAVYYCARDLSRGANPHYYYYYGMDVWGQGTTVTVSS | binds
ET200-125 scFv (scFv, VL-linker-VH; screened as scFv phage clone) scFv: NFMLTQPHAVSESPGKTVTISCTRSSGSIASNYVQWYQQRPGSSPRTVIYEDNQRPSGVPGRFSGSIDSSSNSASLTISGLKTEDEADYYCQSYDSTSVLFGGGTKLTVLGSRGGGGSGGGGSGGGGSLEMAEVQLVQSGAEVKKPGSSVKVSCKASGGTFSSNSLSWVRQAPGQGLEWMGRIFPILGITNYAQKFQGRVTITADKSTSTAYMELSSLRSEDTAVYYCARGNYQWYDAFDIWGQGTMVTVSS | binds
ET200-005 scFv (scFv, VL-linker-VH; screened as scFv phage clone) scFv: QPVLTQPPSVSVVPGKTARITCGGKNIGSKSVHWYQQKPGQAPVVVIHYDSDRPSGIPERFSGSNSGNTATLTISRVEAGDEADYYCQVWDSSSDHPYVFGTGTKVTVLGSRGGGGSGGGGSGGGGSLEMAQVQLVQSGAEVKKPGASVKVSCKASGYTFTNYGISWVRQAPGQGLEWMGWISAYNGNTNYAHKLQGRVTMTTDTSTSTANMELRSLRPDDTAVYYCARSYFGSHDYWGQGTLVTVSS | binds
ET200-124 scFv (scFv, VL-linker-VH; screened as scFv phage clone) scFv: SYVLTQPPSVSVAPGKTARISCGGNDIGSKSVFWYQQRPGQAPVLVVYDDSDRPSGLPERFSGFNSGNTATLTISRVEAGDEADYYCQVWDSSSDHYVFGTGTKVTVLGSRGGGGSGGGGSGGGGSLEMAQVQLVESGGGLVQPGRSLRLSCAASGFTFDDYAMHWVRQAPGKGLEWVSGISWNSGSIGYADSVKGRFTISRDNAKNSLYLQMNSLRAEDTALYYCAKDITYGSGSYGAFDIWGQGTMVTVSS | binds
ET200-010 scFv (scFv, VL-linker-VH; screened as scFv phage clone) scFv: QSALTQPASVSGSPGQSITISCTGTSSDVGGYNSVSWYQQHPGKAPRLMIYDVSNRPSGVSNRFSGSKSGNTASLTISGLQAEDEADYYCSSYTSSSTPLVFGTGTKVTVLGSRGGGGSGGGGSGGGGSLEMAQVQLVQSGAEVKKPGASVKVSCKASGYTFTSYGISWVRQAPGQGLEWMGWISAYNGNTNYAQKLQGRVTMTTDTSTSTAYMELRSLRSDDTAVYYCARGAVAYHDWGQGTLVTVSS | binds
ET200-011 scFv (scFv, VL-linker-VH; screened as scFv phage clone) scFv: QSVVTQPPSVSAAPGQRVTISCSGSSSNISIYDVSWYQQLPGTAPKLLIYGNNKRPSGIADRFSGSTSGTSATLGITGLQTGDEADYYCGTWDDSLSGGVFGGGTKLTVLGSRGGGGSGGGGSGGGGSLEMAQMQLVQSGAEVKKPGSSVKVSCEASGGTLSSYAINWVRQAPGQGLEWMGGIIPMFGTAHYAQKFQGRVTITADESTKTAYMELSSLRSEDTAVYYCARGVHYASFDHWGQGTLVTVSS | binds
